Source: IntAct's records for PubMed 23851574

B1: Large envelope protein (Hepatitis B virus genotype D subtype adw (isolate United Kingdom/adyw/1979)), P03139-1 (parent)
chain: MGQNLSTSNPLGFFPDHQLDPAFRANTNNPDWDFNPNKDTWPDANKVGAGAFGLGFTPPHGGLLGWSPQAQGIMQTLPANPPPASTNRQSGRQPTPLSPPLRTTHPQAMHWNSTTFHQTLQDPRVRGLYFPAGGSSSGTVNPVPTTTSPISSIFSRIGDPALNMENITSGFLGPLLVLQAGFFLLTRILTIPQSLDSWWTSLNFLGGTTVCLGQNSQSPISNHSPTSCPPTCPGYRWMCLRRFIIFLFILLLCLIFLLVLLDYQGMLPVCPLIPGSSTTSTGSCRTCTTPAQGISMYPSCCCTKPSDGNCTCIPIPSSWAFGKFLWEWASARFSWLSLLVPFVQWFVGLSPIVWLSVIWMMWYWGPSLYSILSPFLPLLPIFFCLWAYI
partner: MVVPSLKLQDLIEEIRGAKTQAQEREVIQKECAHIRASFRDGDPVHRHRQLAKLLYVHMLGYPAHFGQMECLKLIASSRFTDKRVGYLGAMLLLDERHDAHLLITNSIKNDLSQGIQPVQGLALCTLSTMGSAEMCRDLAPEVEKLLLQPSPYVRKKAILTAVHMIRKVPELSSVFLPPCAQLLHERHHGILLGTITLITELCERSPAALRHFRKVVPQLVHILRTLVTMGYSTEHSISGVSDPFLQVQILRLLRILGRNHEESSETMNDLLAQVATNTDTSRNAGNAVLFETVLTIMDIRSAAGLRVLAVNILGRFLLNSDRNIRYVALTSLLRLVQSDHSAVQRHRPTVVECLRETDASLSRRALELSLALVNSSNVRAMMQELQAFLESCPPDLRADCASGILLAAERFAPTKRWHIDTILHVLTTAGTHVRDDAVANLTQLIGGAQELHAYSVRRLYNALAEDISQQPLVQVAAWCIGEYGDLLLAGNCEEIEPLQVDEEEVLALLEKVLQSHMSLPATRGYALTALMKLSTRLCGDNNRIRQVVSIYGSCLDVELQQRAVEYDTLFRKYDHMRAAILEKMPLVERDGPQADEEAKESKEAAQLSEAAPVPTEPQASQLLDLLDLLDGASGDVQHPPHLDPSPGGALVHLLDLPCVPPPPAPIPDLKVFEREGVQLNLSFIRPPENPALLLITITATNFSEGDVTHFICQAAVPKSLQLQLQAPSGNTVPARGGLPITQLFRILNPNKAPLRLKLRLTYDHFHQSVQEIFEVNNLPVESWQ
B2: AP-1 complex subunit gamma-like 2 (Homo sapiens), O75843 (parent)
chain: B1 partner

Variants of: B1
Conditions: with ap1g2_human AP1G2, O75843

Variant | effect of a mutation on the interaction
F34A | decreasing interaction strength
W32A | decreasing interaction strength
D31A | decreasing interaction strength
D33A | decreasing interaction strength

Variants of: B2
Conditions: with S

Variant | effect of a mutation on the interaction
K719Q | decreasing interaction strength
R760A | decreasing interaction strength
A716G | decreasing interaction strength
S720A | decreasing interaction strength
R756Q | decreasing interaction strength
R756A | decreasing interaction strength
P754A | decreasing interaction strength
